Laboratory results as given in US20160200781.

How the values were obtained:
[1] = tested on: ZF6xHunt-Kox-1 (synthetic); assay: cell_activity; details: htt mRNA repression up to 2.5-fold (60%); protein up to 2-fold; STHdh Q111 cells, 20 days
[2] = tested on: ZF11xHunt-Kox-1 (synthetic); assay: cell_activity
Sequence of ZF11xHunt-Kox-1 (synthetic) (chain, as listed by the source): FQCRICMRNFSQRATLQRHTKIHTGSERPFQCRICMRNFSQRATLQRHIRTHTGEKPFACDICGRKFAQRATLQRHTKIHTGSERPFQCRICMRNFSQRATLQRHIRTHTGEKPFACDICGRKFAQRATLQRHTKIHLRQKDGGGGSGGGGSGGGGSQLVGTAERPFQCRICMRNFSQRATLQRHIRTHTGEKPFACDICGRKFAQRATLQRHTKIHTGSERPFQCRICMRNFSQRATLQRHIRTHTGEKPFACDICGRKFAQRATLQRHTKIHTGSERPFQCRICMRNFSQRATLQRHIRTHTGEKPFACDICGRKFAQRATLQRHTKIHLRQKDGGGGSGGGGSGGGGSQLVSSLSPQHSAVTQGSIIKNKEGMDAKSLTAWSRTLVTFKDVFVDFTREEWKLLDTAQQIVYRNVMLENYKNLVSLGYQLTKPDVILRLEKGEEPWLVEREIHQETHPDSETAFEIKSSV

Sequence of ZF6xHunt-Kox-1 (synthetic) (chain, as listed by the source): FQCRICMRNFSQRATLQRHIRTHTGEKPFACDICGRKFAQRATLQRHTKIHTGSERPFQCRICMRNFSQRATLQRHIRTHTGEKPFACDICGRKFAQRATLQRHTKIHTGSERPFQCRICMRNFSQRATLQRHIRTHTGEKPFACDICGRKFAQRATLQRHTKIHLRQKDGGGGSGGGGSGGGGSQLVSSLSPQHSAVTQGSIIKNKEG

| Substance | activity [1] | activity ([2]; almost 80% mRNA reduction and 95% protein reduction, STHdh Q111 cells, 20 days) | activity ([2]; mean mutant htt mRNA reduction in R6/2 striatum at 6 weeks, AAV2/1 delivery) |
| --- | --- | --- | --- |
| mutant htt Q111 chromosomal locus | < 2.5 fold | 80 % reduction |  |
| R6/2 mutant htt transgene |  |  | > 45 % reduction |
